No end group written: not given here.
T1: human Shank1 PDZ (652-765), GST tag removed (human, UniProt Q9Y566 652-765)
T1 sequence: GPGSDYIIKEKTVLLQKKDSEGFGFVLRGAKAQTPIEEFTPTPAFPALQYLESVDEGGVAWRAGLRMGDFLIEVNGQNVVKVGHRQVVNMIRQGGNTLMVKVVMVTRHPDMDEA


Assays:
[1] = biological target: C-terminally truncated ARAP3 peptide (human); assay: fluorescence polarisation
[2] = biological target: T1, human Shank1 PDZ (652-765), GST tag …; assay: fluorescence polarisation

Binder | fold change in affinity against ARAP3 (1414-1429) [1] [fold] | binding result [2]
human Shank1 PDZ (652-765), GST tag removed (domain or fragment) GPGSDYIIKEKTVLLQKKDSEGFGFVLRGAKAQTPIEEFTPTPAFPALQYLESVDEGGVAWRAGLRMGDFLIEVNGQNVVKVGHRQVVNMIRQGGNTLMVKVVMVTRHPDMDEA | 2.5 | –
FPELIQDTSTSFSTTR (also: FITC label, position not given here) [ARAP3_(1414-1429) peptide] | – | binds

— paper PMC8244488 (Current Research in Structural Biology, 2021)
